Assay results taken from patent US5863776A, “Method of preparing apoenzyme” (Research Development Foundation, priority 1996, dated 1999).

Legend:
MAO B [1] = target: T1, MAO B (Homo sapiens, UniProt P27338, E34D); conditions: cited from earlier work
T1 construct: expressed in transfected cells; host or cells: Rib+ COS-7, transient
T1 sequence (P27338 2-520 E34D): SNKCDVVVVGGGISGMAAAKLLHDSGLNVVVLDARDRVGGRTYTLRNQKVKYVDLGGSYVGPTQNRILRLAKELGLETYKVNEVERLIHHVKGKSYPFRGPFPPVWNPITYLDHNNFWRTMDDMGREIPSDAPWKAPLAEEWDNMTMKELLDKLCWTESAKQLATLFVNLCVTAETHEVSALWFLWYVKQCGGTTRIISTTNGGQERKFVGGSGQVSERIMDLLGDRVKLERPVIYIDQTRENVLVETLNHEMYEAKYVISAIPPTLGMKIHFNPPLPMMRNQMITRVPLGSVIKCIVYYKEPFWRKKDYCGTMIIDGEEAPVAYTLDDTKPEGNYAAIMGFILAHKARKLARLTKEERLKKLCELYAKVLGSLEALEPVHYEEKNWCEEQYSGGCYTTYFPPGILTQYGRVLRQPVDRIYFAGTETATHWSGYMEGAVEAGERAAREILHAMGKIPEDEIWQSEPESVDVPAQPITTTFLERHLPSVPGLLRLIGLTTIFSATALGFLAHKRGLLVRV

MAO B [2] = target: T1, MAO B; assay: [^14 C] FAD incorporation into wild-type or mutant MAO B in Rib^- COS-7 cells (immunoprecipitation, fluorography); format: binding; conditions: densitometer
Description: (§1) Mutagenesis was carried out by the method of Deng and Nickoloff (22) using a Transformer Site-directed Mutagenesis kit (Clontech). Glu in position 34 was replaced with Asp (E34D), Gln (E34Q), or Ala (E34A), and Val in position 10 was replaced with Ile (V10I) as described by Kwan et al. (18).
(§2) Wild-type or mutant MAO B cDNAs were transiently transfected into COS-7 cells by electroporation (23) as previously described (18). Briefly, Rib^+ - or Rib^- COS-7 cells were harvested during late log phase growth and resuspended to a concentration of 3.1×10^6 cells/ml in either riboflavin-containing or riboflavin-free medium, respectively. Wild-type or mutant MAO B cDNAs ([…]) were added to 0.8 ml of cell suspension. […] Electroporation was carried out in a Bio-Rad Gene Pulser with a setting of 250 V and 500 μF. Cells were resuspended in 15 ml of riboflavin-containing or riboflavin-free medium and incubated at 37° C. with 5% CO2. Transfected COS-7 cells were harvested at 48 hours and homogenized in a lysis solution containing 20 mM Tris-HCl, 1 mM EDTA, 0.5 mM PMSF, pH 8.0. The homogenate was diluted with an equal volume of the same buffer supplemented with 300 mM NaCl to obtain a 150 mM final NaCl concentration. Triton X-100 (Pierce) was added to the lysate to give a final concentration of 0.25%, and the samples were allowed to stir for 50 min. at 4° C. to extract MAO B from the outer mitochondrial membrane. After Triton extraction, the lysate was centrifuged at 1300×g for 5 min. at 4° C. to remove insoluble cell debris.
(§3) Transfected Rib^+ - or Rib^- COS-7 cells were homogenized, and extracted with 0.25% Triton X-100 for 50 minutes at 4° C. The cell lysates were centrifuged at 1300×g for 5 minutes, and an aliqout of each supernatant was analyzed for MAO B concentration by ELISA. All supernatants were then adjusted to equal MAO B concentration and incubated with polyclonal goat anti-MAO B antibody (10 μg) overnight at 4° C. Protein-G Sepharose beads (Pierce) were added (50 μl) and incubation was continued for 3 hours. The protein-G Sepharose/goat antibody/MAO B immmunocomplex was collected by centrifugation at 10,000×g for 20 seconds and washed 6 times with 150 μl of 20 mM Tris buffer, pH 8.0. The immunocomplex was then dissolved in SDS-PAGE sample buffer and analyzed by Western blot or fluorography.
(§4) The immunoprecipitated proteins (obtained as described above) were subjected to electrophoresis in a 10% SDS-polyacrylamide gel and examined by Western blotting as previously described (18). The immunoprecipitated proteins (obtained as described above) were subjected to electrophoresis in a 10% SDS-polyacrylamide gel. The SDS-PAGE gel was fixed by soaking in 7% acetic acid, 10% methanol, 83% H2 O for 1 hour, and then processed for fluorography as described by Bonner and Laskey (27). The dried gel was exposed to Kodak X-OMAT AR film at -80° C. for 2 weeks.
(§5) The expressed wild-type and variant MAO Bs were adjusted to equal concentrations using ELISA before immunoprecipitation, and then analyzed by fluorography. The amount of incorporation of [^14 C] […] FAD was incorporated into the enzyme.

MAO B [3] = assay: as above; format: binding, human; conditions: about 59 kDa; equal MAO B concentrations
Description: as §1, §2, §3, §4, §5

B1: E34D: MAO B with Glu in position 34 replaced with Asp (protein, UniProt P27338 2-520, looked up, variant E34D)
Amine oxidase …: T1 sequence (P27338 2-520 E34D)
reduction in activity (MAO B [1]; Rib^+ COS-7 cells): 93% | activity, % of wild-type activity (MAO B [1]): 7% | [^14 C] FAD incorporation, percent of wild-type (MAO B [2]): about 10% | [^14 C] FAD incorporation (band on fluorogram) (MAO B [3]): faint band
